Experiment: label from the status in PepcDB records
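Further: failed if final PepcDB status was selected cloned or expressed and not failed if soluble or beyond.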

Sequence | protein production
MDTIQKRPRTRLSPEKRKEQLLDIAIEVFSQRGIGRGGHADIAEIAQVSVATVFNYFPTREDLVDDVLNKVENEFHQFINNSISLDLDVRSNLNTLLLNIIDSVQTGNKWIKVWFEWSTSTRDEVWPLFLSTHSNTNQVIKTMFEEGIERNEVCNDHTPENLTKMLHGICYSVFIQANRNSSSEEMEETANCFLNMLCIYK | failed
MDTLKVRDAQEVEDAVRAAIANEQPIEIVGHGSKRSIGQLMSTNAVLELSALNAVTAYEPNELIITVQAGAPMADVLSLIDSKNQQFAFEPMDTATLLGTTPGAGTVAGMISAGLAGPRRIKAGGARDHLLGANAVSGFGESFKAGGKVVKNVTGYDLCKLLAGSWGTLAVMTEVTLKVTPRPESERTLVLRGLADVVANKAMTAALGSPYDVTGAAHLPGSALRTTAGALAEIAQPDQSLTLLRLEGITSSASHRAQSLRAALKSFGDAELIEDDASAALWRAVRDVEPFAASGPRALWPVWRIVCPPAAGGAFGEQLSRESGGEVIYDWGGGLIWAALPPATDGHAKALRQRVEKIGGHATLIRGSDAVRAGIDIFHPQPAGLAALGSRVKRSFDPTNILNRGRMSRGSAT | failed
MDTNGVLYAANMTNALAKEIPESKWDIQLIPELGTLRKLFIHIVRVRDVYRDGLKTGSIKFPGRLASDEHRLLDELERSMEELVFEFKQTTFNSIKMGENYLSIMELLGTVIQHEGIHQGQYYVALKQSGINLPKQWVQDWHM | not failed
MDTPPTVFSIIIPVYNRPDEVRELLESLLIQTNSDFEVIIVEDGSSVCCDKEVDRVRELLRIQYVRVPNGGPAAARNIGARMAVGEYLLILDSDVVLPSGYIAAVKKRIEQMQADAFGGPDAAAEGFSPIQKAINYAMTSFFTTGGIRGGRRVRLDKFYPRSFNFGCKLSVYRQLGGFSEEMRFGEDIDFSLRLFKAGYNVCLFPEAFVFHKRRIDFKKFFRQVYNSGIARIHLQRRHPGSMKPVHILPALFTLGSVILAVGQFFCPWSLLPLLLLALLFLLDAWHTNRSLRIAILAVPASFVQLWGYGSGFLVACWRCYVLGHQEFRAFDKTFYN | failed
MDTRFCSSLLIKNLNTFPASNKEIMNVTVSEAERNAGDERPDLQACAEAYAIVNSAFTKAVTFFKQAYYSKIVNIEKKVSMAVDICKTDFNVLGYQINPLIEKNRQTKILLSMEQIVSHMVSS | failed
MDTTCLVLTWMGSRVPIETIEEDGEFDWEAAVKEIDLACLKTTNAHPPITENLTKPPAKRQSTLDKFIGRTEPKPENHQVVSECGGNDNDNSLLVEIDPEAAKTWIYRGLLRLLTF | failed
MDTTFGLDLARVETLFKRELRRFDELHPRSAQAYRENRRHWLYGAPLHWMQQWPGNCPLLVKEAQGARVTDIDGQQYVDFALGDSGAMFGHAQPAVADAIARQARRGSTLMLPTEDSLWVGAELARRFGLPYWQVTTSATDANRFVLRLCRMLSGRDKVVVFNCNYHGSVDESQVEFDAAGRMVPRAGVHPNGVRHATTTRLVEFNDLDALEAALAHGDVAAVLTEPFMTNVGMVPPAEGFHAGLRELTRRHDVALIIDETHTISCGPAGYSGAHGLEPDFFVLGKCIAGGIPSAVWGCSQAQAERIWAVLPHFRPGQAINHFGFGGTLAGNALQLAAMRATFAEVMTEDAYRHMFQLAAQLEAGVRATLEELRLPWHVTRIGARVEYLFMTHAPRNGGEAHHARNGLIEACLHLYLLNRGVLLTPFHNMALTCPATRAEDVELHDRLLRDCLGELLERPS | failed
MDTVWMEIWTTVRNEFADIPDVAEATRIVLRLGMAVALGGLLGYERERSGKAAGLRTHMLVALGAALFVLVPLQGGMEVGDLSRVLQGVIAGIGFLGAGAIIKLGNEGEIRGLTTSAGIWLTAAIGVAAGMGREATALASTLIALFVLAALRHLEKRIAARDDKRVVAQPPP | failed
MDVFSEILNGIGRLLLQPALYVGIILVIIAGFNRVKWERKSFSISIYSPWLELKNFFGVSLLFGLVLSIITTLIGFSVMIEWIAIFNAVACFLLIVGMFRLSSTAFTIGITSLIFYFCYYFDVNLSPFTNLEFTYDAIFIDNFMISMTFLLAILLFVEAFLIQYTSAKNPSPSLRKSKRGKLVGSFQLRKLWFVPLVVFIPGDVFTKIFEWWPVFTIGSESYSLIILPLFIGFQQQVQAQLPEEASKKIAVQVTTLATIIAVAGLIGIVMPVLTLFAFMFAVIGRFWISYRHYRSEQLLPKKFGPQPDGLVVLGARESTPSTRLNLKAGEKITEVNGQKVHNREELYEALNLNRAFCKLKVIDNAGEPRFEQTALYENESFELGLLLVEPR | failed
MDVGESNERVKDDSALQASPRSPLSSIDLAIDGAMNASIEQLYHNVCEMESSDDQSPSRASFISYGAESRIDLELRHLVGDVGEEGESKKEIILEKKEESNGEGSLSQKKPLSNGKKVAKTSPNNPKMPGSRISSRKSPDLGKVSVDEESPELGVVLLKQARELVSSGENLNKALDLALRAVKVFEKCGEGEKQLGLNLVMSLHILAAIYAGLGRYNDAVPVLERSIEIPMIEDGEDHALAKFAGCMQLGDMYGLMGQVENSIMLYTAGLEIQRQVLGESDARVGETCRYLAEAHVQAMQFEEASRLCQMALDIHKENGAAATASIEEAADRKLMGLICDAKGDYEVALEHYVLASMAMSSQNHREDVAAVDCSIGDAYMSLARFDEAIFAYQKALAVFKQGKGETHSSVALVYVRLADLYNKIGKTRDSKSYCENALKIYLKPTPGTPMEEVATGFIEISAIYQSMNELDQALKLLRRALKIYANAPGQQNTIAGIEAQMGVVTYMMGNYSESYDIFKSAISKFRNSGEKKTALFGIALNQMGLACVQRYAINEAADLFEEAKTILEKECGPYHPDTLAVYSNLAGTYDAMGRLDDAIEILEYVVGTREEKLGTANPEVEDEKQRLAALLKEAGRGRSKRNRALLTLLDNNPEIANGQRPVY | failed
MDVGVVRPQRTEAGWDGGVAPRAGPTRRREACTAYVQRVAGGSGLPEGSSGSEPGPGRSRERPGDAAGGSGNAGCCACPVVSETGGDWLTDSTNRAFSVPGDFQGRRQAEGKTQKVRVQSTGKVPPFPVMKLQVLVLLMSWFGVLSWVQAEFFTSIGHMTDLIYAEKDLVQSLKEYILAEEAKLSKIKSWASKMEALTSKSAADPEGYLAHPVNAYKLVKRLNTDWPALGDLVLQDAAAGFVANLSVQRQFFPTDEDESGAARALMRLQDTYKLDPDMISRGELPGTKYQAMLSVDDCFGMGRSAYNEGDYYHTVLWMEQVLKQLDAGEEATVTKSLVLDYLSYAVFQLGDLHRAVELTRRLLSLDPSHERAGGNLRYFERLLEEERGKSLSNQTDAGLASQENLYERPVDYLPERDVYESLCRGEGIKMTPRRQKRLFCRYHHGNRVPQLLIAPFKEEDEWDSPHIVRYYDVMSDEEIERIKEIAKPKLARATVRDPKTGVLTVASYRVSKSSWLEEDDDPVVARVNRRMQHITGLTVKTAELLQVANYGMGGQYEPHFDFSRSDERDAFKRLGTGNRVATFLNYMSDVEAGGATVFPDLGAAIWPKKGTAVFWYNLLRSGEGDYRTRHAACPVLVGCKWVSNKWFHERGQEFLRPCGTTEVD | failed
MDVMRSVLGMVVLLTIAFLLSVNKKKISLRTVGAALVLQVVIGGIMLWLPPGRWVAEKVAFGVHKVMAYSDAGSAFIFGSLVGPKMDTLFDGAGFIFGFRVLPAIIFVTALVSILYYIGVMGILIRILGGIFQKALNISKIESFVAVTTIFLGQNEIPAIVKPFIDRLNRNELFTAICSGMASIAGSTMIGYAALGVPVEYLLAASLMAIPGGILFARLLSPATESSQVSFNNLSFTETPPKSIIEAAATGAMTGLKIAAGVATVVMAFVAIIALINGIIGGVGGWFGFEHASLESILGYLLAPLAWVMGVDWSDANLAGSLIGQKLAINEFVAYLNFSPYLQTAGTLDAKTVAIISFALCGFANFGSIGVVVGAFSAVAPHRAPEIAQLGLRALAAATLSNLMSATIAGFFIGLA | failed
MDVTGKSLKRILLSLAVFCILITGPGIACAEEATTQEKEILFSDYFKSMMDMAQDKYKGEITEKQMLEGALKGIFSTMDSYTVYYTVEESQDFFTDINGSYTGIGVVMSEVDGKIVIDKVYPSSPAEEAGIKKGDVIAQVDGKSVENLSLEEVAGLIKGPSGTKVVIGVLRNGTDGVIELEVTRRQIIINPVTHKIEGDIGYIKLESFNSNASKAMEEALKQMDKNNIKKIILDLRDNPGGDVGQAVSIARKFVKKGLITKLDFKSESQKDEEYYSYLEELKYKLVVLVNENSASASEILAGAIQDTGSGILVGTTTFGKGKVQNLYPILTPEAVEKYRKETGETFVNGYDLLEKHGIYPSDEEIIGWVKITTGEYYTPNGRMIDGVGLEPDVYVENEPEGKYKILEGVEKLRKVTKPSLNAQSEDVLNAEKILSALGYDVDTPDNLMDEKTVKAVAEFQRDCGLYSYGVLDFATQQALNDKLDELLLVKNRDKQYEKAVELLEN | failed
MDVTWTVKYITEFVGTALLIIMGNGAVANVELKGTKAHAQSWMIIGWGYGLGVMLPAVAFGNITSQINPAFTLGLAASGLFPWAHVAQYIIAQVLGAMFGQLLIVMVYRPYYLKTQNPNAILGTFSTIDNVDDNDKKTRLGATINGFLNEFVGSFVLFFGAVAATNIFFGSQSITWMTNYLKGQGADVSSSDIMNQIWVQASGASASKMVAHLFLGFLVMGLVVALGGPTGPGLNPARDFGPRLVHSLLPKSVLGEAKGSSKWWYAWVPVLAPILASLAAVALFKMIYL | failed
MDWLLTPGPVRLHPKALEALARPQLHHRTEAAREVFLKARGLLREAFRTEGEVLILTGSGTLAMEALVKNLFAPGERVLVPVYGKFSERFYEIALEAGLVVERLDYPYGDTPRPEDVAKEGYAGLLLVHSETSTGALADLPALARAFKEKNPEGLVGADMVTSLLVGEVALEAMGVDAAASGSQKGLMCPPGLGFVALSPRALERLKPRGYYLDLARELKAQKEGESAWTPAINLVLAVAAVLEEVLPRLEEHLALKAWQNALLYGVGEEGGLRPVPKRFSPAVAAFYLPEGVPYARVKEAFAQRGAVIAGGQGPLKGKVFRLSLMGAYDRYEALGVAGMFREVLEEILPAS | not failed
MDYFRSPDGPMFMIICGEGPCSGIANDYINESLNKKLNISSGGSDNPWFFFGISYSGALSAWFRLKFPHLTCGSLASSAVVRAIYEFSEFDQQIGESAGQECKLALQETNKLLELGLKVKNKAVKSLFNATELDVDADFLYLTADAAVMAFQYGNPDKLCVPLVEAKKNGSDLVVTYSTYVREYCMRIWGLRVRTYNRKHLRNTVVTADSAYRLWWFQACTELGYFQVAPKYDSVRSHQINTTFHLDLCKSLFGKDVYPKVDATNLYYGGDRLAATKIIFTNGSEDPWRHASKQNSTHEMPSYIIKCRNCGHGSDIRGCPQSPMVIEGKSNNCSLPDYVNKVRQQMVEHIDLWLSECRQSIRSSI | not failed
MDYPVWQLWGINGGLLVAIISVLHVFVAQFAVGGGFLLVHAATRAERAGSAEATFWVKRFTRFFLLLSMVFGGVSGVGIWVIISLISPAATSLLVHRFVYAWATEWVFFLGEIVALLVYYYGFGKMRFEDHRNVGLLYGLFAYLSLFMINGIITFMLTPGAWMQTQGFWDGFFNPTFWPSLLFRSALCAMLSGLFGLVWASLIDDERARELMTGVTRLWALVPIPFMAVGAWWYLGALPAPQLEMVLRRTADIRPFLEAFPWVLAALMVGGLAFFTRLPSGARVPVAALLLVLGLCQVGTFEWVRETGRRPWIVHGVIWSNGITPEAGAKSDLEGMLKVARWSGVKQVAEANMHEAGRELWQVQCANCHGLGAPMIDILPRIANRPLTGVEALITGQGALQGYMPPFVGTPAERRALATYLVNERDARRH | failed
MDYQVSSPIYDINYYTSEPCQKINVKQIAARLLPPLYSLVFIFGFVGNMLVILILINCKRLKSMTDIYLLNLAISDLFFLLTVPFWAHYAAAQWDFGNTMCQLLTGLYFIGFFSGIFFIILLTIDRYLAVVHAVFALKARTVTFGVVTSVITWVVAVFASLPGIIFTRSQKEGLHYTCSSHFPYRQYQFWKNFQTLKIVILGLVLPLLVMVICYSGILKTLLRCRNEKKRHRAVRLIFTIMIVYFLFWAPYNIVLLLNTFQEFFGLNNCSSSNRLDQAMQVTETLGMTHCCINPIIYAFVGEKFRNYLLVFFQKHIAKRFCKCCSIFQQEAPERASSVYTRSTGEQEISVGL | not failed
